The values that follow come from paper PMC8887127.

Data set [1] deals with T1, GST-BEND3-BD4 (gel shift construct) (Homo sapiens, UniProt Q5T5X7 546-828).
T1 sequence: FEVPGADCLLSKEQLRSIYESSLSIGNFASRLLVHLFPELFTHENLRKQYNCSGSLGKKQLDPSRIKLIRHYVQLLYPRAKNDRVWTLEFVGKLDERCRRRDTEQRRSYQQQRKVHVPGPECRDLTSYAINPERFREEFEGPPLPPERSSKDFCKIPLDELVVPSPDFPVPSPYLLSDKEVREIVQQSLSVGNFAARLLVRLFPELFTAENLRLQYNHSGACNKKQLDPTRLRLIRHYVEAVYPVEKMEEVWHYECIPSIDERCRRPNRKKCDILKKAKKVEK
Nature of the data set: EMSA.

Data set [2] has as its target T2, BEND3-BD4 (crystal construct) (Homo sapiens, UniProt Q5T5X7 715-828).
T2 sequence: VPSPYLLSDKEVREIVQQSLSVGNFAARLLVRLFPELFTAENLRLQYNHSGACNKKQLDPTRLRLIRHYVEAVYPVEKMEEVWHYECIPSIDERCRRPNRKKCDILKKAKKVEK
Nature of the data set: X-ray crystallography.

B1: mutant BD4 probe (dsDNA)
DNA 1: CTAAACCTTTCTACGCTAAAACCTGTCTT
DNA 2: AAGACAGGTTTTAGCGTAGAAAGGTTTAG
As for B1, the binding result in data set [1] is reported as “no binding”.

B2: wild-type BD4 probe (dsDNA)
DNA 1: CTAAACACCCACGCGCCGTGGGTTGTCTT
DNA 2: AAGACAACCCACGGCGCGTGGGTGTTTAG
On to B2, for which the binding result in data set [1] is “binds”.

B3: 13-mer BD4 target duplex (dsDNA)
DNA 1: GGACCCACGCAGC
DNA 2: GGCTGCGTGGGTC
With B3, in data set [2], the binding result is on record as “binds”.
